Measurements taken from patent US20220323619A1 (TELIX INTERNATIONAL, published 2022).
Substitutions are numbered along the chain they refer to. In names and notes the source's numbering stands. Each block holds one binder with its values, some of them ahead of it.

Assays:
[1] = biological target: T1, human FcγRI (Sino Biological, His-tagged) (human, UniProt P12314 16-288, limits assumed); test: Biacore single cycle, His-tagged receptor captured on anti-His CM5 chip, antibody analyte; 1:1 kinetics
T1 construct: Bought product; also called FcgRI; not shown: His tag

[2] = biological target: T2, human FcγRIIa 167R (Sino Biological, His-tagged) (human, UniProt P12318 34-218, limits assumed); test: Biacore single cycle, His-tagged receptor captured on anti-His CM5 chip, antibody analyte; steady state
T2 construct: not shown: His tag
T2 sequence (looked up): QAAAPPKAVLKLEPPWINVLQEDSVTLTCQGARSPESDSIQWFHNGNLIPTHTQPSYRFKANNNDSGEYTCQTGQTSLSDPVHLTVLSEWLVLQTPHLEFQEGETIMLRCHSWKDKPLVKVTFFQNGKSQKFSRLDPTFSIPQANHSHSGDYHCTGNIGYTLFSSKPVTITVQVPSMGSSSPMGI

[3] = biological target: T3, human FcγRIIIa 176V (Sino Biological, His-tagged) (human, UniProt P08637 17-208); test: as above
T3 construct: not shown: His tag

[4] = biological target: T4, human FcγRIIb (Sino Biological, His-tagged) (human, UniProt P31994 43-217, limits assumed); test: as above
T4 construct: not shown: His tag
T4 sequence (looked up): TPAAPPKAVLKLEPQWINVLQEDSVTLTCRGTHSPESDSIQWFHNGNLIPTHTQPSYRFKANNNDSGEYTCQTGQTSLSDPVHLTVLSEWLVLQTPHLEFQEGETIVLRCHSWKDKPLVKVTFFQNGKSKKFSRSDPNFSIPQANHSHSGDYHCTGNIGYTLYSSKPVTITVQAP

[5] = biological target: T5, human FcγRIIa 167H (Sino Biological, His-tagged) (human, UniProt P12318 34-218, limits assumed); test: as above
T5 construct: not shown: His tag
T5 sequence (looked up): T2 sequence (looked up) with R134H

[6] = biological target: T6, human FcγRIIIa 176F (Sino Biological, His-tagged) (human, UniProt P08637 17-208); test: as above
T6 construct: not shown: His tag

[7] = biological target: T7, human FcγRIIIb (Sino Biological, His-tagged) (human, UniProt O75015 17-200, limits assumed); test: as above
T7 construct: not shown: His tag

[8] = biological target: T8, prostate-specific membrane antigen (PSMA) (R&D Systems) (UniProt Q04609 44-750); test: Biacore multi-cycle kinetics, antibody captured on Protein G chip, PSMA analyte 1.5625-25 nM
T8 construct: Soluble analyte in the Biacore assay
T8 sequence (Q04609 44-750 limits assumed): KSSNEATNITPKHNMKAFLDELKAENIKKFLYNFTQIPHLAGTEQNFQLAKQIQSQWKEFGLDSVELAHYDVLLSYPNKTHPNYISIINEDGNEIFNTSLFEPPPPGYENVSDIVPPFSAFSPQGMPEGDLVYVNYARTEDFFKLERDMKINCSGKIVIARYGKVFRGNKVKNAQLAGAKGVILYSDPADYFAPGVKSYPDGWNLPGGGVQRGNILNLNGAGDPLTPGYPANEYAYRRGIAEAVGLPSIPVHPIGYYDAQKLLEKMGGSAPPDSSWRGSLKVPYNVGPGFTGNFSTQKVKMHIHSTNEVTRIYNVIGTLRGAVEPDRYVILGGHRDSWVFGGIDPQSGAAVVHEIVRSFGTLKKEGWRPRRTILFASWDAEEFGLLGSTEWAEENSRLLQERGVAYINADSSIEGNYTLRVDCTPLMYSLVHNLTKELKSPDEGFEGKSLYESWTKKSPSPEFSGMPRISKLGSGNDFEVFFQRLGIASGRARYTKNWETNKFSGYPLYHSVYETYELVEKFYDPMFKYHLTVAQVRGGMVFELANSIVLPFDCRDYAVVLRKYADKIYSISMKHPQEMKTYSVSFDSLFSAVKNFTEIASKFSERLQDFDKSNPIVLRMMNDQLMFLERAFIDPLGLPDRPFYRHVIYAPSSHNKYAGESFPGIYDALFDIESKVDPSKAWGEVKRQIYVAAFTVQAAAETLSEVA

T1 sequence (P12314 16-288 limits assumed): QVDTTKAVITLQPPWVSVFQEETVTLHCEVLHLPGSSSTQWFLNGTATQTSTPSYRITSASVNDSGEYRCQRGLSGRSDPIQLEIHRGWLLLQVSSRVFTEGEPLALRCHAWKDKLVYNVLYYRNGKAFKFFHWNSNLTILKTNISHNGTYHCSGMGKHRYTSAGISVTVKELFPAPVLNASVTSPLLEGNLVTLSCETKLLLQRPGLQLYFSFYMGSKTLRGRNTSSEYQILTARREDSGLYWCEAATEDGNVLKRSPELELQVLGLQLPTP
T7 sequence (O75015 17-200 limits assumed): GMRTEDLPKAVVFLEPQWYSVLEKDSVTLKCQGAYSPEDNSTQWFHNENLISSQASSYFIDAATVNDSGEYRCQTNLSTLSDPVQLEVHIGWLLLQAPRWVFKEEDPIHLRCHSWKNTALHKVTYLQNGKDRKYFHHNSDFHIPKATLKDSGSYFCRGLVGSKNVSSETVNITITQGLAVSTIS
T6 sequence (P08637 17-208 limits assumed): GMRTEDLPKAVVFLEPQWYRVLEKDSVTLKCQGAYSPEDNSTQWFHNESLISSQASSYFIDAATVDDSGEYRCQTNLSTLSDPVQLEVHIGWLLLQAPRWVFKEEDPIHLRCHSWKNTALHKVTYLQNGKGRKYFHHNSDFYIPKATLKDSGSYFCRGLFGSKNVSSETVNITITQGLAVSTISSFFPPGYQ
T3 sequence (P08637 17-208 F176V limits assumed): as the sequence (P08637 17-208 limits assumed) above, with F160V counted along it

binding result [1]: binds
binding result [2]: binds
binding result [3]: binds
binding result [4]: binds
binding result [5]: binds
binding result [6]: binds
binding result [7]: binds
B1: ANT4044 IgG1 (H310A, H435Q) (antibody)
heavy: not shown
light: DIQMTQSPSTLSASVGDRVTITCKASQDVGTAVDWYQQKPGQAPKLLIYWASTRHTGVPDRFSGSGSGTDFTLTISRLQPEDFAVYYCQQYNSYPLTFGQGTKVDIKRTVAAPSVFIFPPSDEQLKSGTASVVCLLNNFYPREAKVQWKVDNALQSGNSQESVTEQDSKDSTYSLSSTLTLSKADYEKHKVYACEVTHQGLSSPVTKSFNRGEC
notes: also called ANT4044-IgG1-2M; ANT4044-FcRn

binding result [1]: binds
binding result [8]: binds
binding result [2]: binds
binding result [3]: binds
binding result [4]: binds
binding result [5]: binds
binding result [6]: binds
binding result [7]: binds
B2: ANT4044-A2 IgG1 (H310A, H435Q) (antibody)
heavy: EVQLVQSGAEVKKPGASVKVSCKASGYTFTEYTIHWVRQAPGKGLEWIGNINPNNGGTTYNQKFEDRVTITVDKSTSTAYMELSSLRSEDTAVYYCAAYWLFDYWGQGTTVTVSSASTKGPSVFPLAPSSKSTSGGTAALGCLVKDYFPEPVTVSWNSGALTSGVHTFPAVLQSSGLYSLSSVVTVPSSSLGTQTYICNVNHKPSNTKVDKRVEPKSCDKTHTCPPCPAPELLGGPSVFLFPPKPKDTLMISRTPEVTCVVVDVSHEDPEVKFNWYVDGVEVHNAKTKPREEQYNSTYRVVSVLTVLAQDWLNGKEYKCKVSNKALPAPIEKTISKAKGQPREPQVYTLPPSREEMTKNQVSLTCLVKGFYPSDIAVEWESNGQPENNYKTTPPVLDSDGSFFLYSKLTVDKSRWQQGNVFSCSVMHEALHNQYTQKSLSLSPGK
light: B1 light
notes: also called ANT4044-A2 RADmAb IgG1

binding result [8]: binds
B3: ANT4044-A2 IgG1 (antibody)
heavy: not shown
light: B1 light
notes: also called ANT4044-A2 expressed as unmodified IgG1

binding result [8]: binds
B4: ANT4044-A2 IgG4 (S228P, L235E, H310A, H435Q) (antibody)
heavy: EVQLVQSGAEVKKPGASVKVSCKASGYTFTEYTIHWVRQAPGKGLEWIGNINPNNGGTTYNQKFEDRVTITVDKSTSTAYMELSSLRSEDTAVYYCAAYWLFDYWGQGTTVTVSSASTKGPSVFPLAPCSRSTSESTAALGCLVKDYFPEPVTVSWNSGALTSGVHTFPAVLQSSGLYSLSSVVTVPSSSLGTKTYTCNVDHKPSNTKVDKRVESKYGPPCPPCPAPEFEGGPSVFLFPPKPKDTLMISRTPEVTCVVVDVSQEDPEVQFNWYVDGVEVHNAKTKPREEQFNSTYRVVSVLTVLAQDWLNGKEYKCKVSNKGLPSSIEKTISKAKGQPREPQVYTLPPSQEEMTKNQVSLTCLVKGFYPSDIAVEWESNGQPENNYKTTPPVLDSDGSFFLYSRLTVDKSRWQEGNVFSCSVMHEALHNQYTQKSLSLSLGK
light: B1 light
notes: also called ANT4044-A2 RADmAb IgG4
